Assay [1] addresses T1, c-Met expressed on H1993 cells (Homo sapiens, UniProt P08581).
T1 construct: H1993 is known to express a high level of c-Met; endogenous in cells; host or cells: H1993
Nature of the assay: Competition ELISA: phage clones inhibit HGF binding to H1993 cells. Conditions: phage-displayed scFv; HGF binding without competitors = 100%. The procedure:
(§1) To test whether the three anti-c-Met scFvs could inhibit HGF binding to c-Met, the human lung cancer cell line H1993 was chosen to undergo competition ELISA (Lutterbach B et al. (2007) Cancer Res 67:2081-2088). […] HGF binding to H1993 cells without competitors was considered 100%. H1993 is known to express a high level of c-Met. When H1993 cells were incubated with HGF in the presence of the phage clones, the binding of HGF to H1993 cells was diminished by more than 90% by the anti-c-Met scFv PC1. PC20 inhibited more than 50% of HGF binding to c-Met (FIG. 2, panel A). The competitive inhibition of HGF by different concentrations of soluble scFvs was also tested. Normal mouse IgG (NMIgG) was used as a negative control. HGF binding to immobilized c-Met protein without competitors was considered 100%.
A general note: ELISA stands for enzyme-linked immunosorbent assay.

In the next assay the target is T2, c-Met-Fc protein (Homo sapiens, UniProt P08581).
T2 construct: Fc; purchased R&D
T2 sequence (P08581 with tags, fused parts or gaps limits assumed): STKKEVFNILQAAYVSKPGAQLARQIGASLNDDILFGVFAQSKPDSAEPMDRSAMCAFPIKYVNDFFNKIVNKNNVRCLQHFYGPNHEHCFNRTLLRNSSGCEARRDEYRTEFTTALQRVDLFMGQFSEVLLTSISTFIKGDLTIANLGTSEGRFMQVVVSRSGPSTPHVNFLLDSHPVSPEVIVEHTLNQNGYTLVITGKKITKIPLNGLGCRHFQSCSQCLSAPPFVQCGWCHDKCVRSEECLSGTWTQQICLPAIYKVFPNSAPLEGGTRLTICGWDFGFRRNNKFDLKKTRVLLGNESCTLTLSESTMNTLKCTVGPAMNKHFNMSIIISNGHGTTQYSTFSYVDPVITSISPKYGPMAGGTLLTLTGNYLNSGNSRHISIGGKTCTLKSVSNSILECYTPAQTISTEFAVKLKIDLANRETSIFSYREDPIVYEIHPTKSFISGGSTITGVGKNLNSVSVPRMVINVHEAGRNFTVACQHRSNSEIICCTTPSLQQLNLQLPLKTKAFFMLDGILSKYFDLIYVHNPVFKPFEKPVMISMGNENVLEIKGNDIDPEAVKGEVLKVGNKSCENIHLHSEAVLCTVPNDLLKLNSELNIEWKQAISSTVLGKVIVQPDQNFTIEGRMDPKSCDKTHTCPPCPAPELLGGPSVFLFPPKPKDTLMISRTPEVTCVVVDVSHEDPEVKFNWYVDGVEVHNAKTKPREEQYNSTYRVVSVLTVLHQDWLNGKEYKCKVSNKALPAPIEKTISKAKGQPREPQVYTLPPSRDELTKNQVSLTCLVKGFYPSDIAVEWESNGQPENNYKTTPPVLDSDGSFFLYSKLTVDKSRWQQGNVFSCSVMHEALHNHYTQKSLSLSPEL
T2 sequence (P08581 25-307 limits assumed): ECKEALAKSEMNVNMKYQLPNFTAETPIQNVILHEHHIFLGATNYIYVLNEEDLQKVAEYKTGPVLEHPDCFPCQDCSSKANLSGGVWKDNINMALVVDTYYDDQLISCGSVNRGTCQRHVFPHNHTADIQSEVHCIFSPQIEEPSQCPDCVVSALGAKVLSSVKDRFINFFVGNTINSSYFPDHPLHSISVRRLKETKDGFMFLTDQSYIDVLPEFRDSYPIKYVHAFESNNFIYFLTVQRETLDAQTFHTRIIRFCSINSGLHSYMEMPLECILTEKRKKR
Nature of the assay: Phage ELISA for binding to c-Met-Fc protein. To be noted: same phage titer. As to the method:
Selection of phages displaying specific anti-c-Met scFv was performed by protein G dynabeads (Invitrogen). c-Met-Fc recombinant protein (R&D) was incubated with protein G dynabeads at room temperature (RT) for 1 hr. The scFv library (2×10^9 members) was subtracted non-specific binding in protein G dynabeads and subsequently incubated with c-Met-Fc immobilized dynabeads for 1 hr at 4° C. Unbound phages were removed by washing 4 times with PBST. The phages that bound to c-Met-Fc were recovered by infection with E. coli TG1 cells at 37° C. for 30 min. Part of the infected cells were serial diluted to determine titer, and the others were rescued by M13KO7 helper phage (NEB). […]
To examine the specificity and binding affinity of the three phage clones, a comparative ELISA using the same phage titer was performed. […] The three clones were assessed for binding to cell-surface c-Met by flow cytometry and immunofluorescence assay using 293T cells ectopically expressing human c-Met. […] Soluble anti-c-Met scFvs were purified from periplasmic extract of phage-infected E-coli HB2151 by protein L agarose chromatography, and then assessed by coomassie blue staining representing purified anti-c-Met scFv proteins (S1, S20 and S21) localized in vicinity of 30 kDa corresponding to protein weight marker (upper panel of FIG. 8, panel B).

For assay [2], the target named is T3, 293T cells ectopically expressing human c-Met (Homo sapiens, UniProt P08581).
T3 construct: The DNA encoding full-length c-Met was amplified by PCR; expressed in transfected cells; host or cells: 293T cells transfected with pEF-c-Met expression vector
Nature of the assay: Phage binding to c-Met-overexpressing 293T cells (flow cytometry, immunofluorescence). Format: cell-based. Conditions: 293T overexpressing c-Met vs 293T; flow cytometry and immunofluorescence. The procedure: For immunofluorescence staining assay, 293T cells were grown on coverslips to 80% confluence. Transfection of the cells with pEF-c-Met expression vector was performed using Lipofectamin 2000 (Invitrogen) according to manufacturer's instructions. At 48 hrs post-transfection, the cells were incubated with the selected anti-c-Met phage or control phage, by 1×10^10 phage titer for 30 min at 4° C. After the cells were washed twice with PBS, they were fixed by 4% paraformaldehyde, permeabilized with 0.1% TritonX-100 and blocked with 3% BSA. […] The fluorescence images were captured by inverted fluorescence microscope (Axiovert 200M, Zeiss).
For flow cytometry analysis, 293T cells were grown to 80% confluence and transfected with pEF-c-Met expression vector as described above. […] Analysis was performed using FACSCantoll (BD) and emission fluorescence intensity was measured by FACSDiva software (BD) to quantitatively compare their binding affinities
To examine the specificity and binding affinity of the three phage clones, a comparative ELISA using the same phage titer was performed. […] The three clones were assessed for binding to cell-surface c-Met by flow cytometry and immunofluorescence assay using 293T cells ectopically expressing human c-Met. […]
For orientation: In flow cytometry, cells or beads pass a laser one at a time.

The target in a further assay is T4, c-Met932-Fc protein (Homo sapiens, UniProt P08581).
T4 construct: DNA fragments encoding amino acid residues 1 to 932 and 1 to 567 of c-Met were amplified by PCR; made in house; host or cells: 293T cells, transient transfection, protein G purification from supernatant
T4 sequence (P08581 25-307): as the sequence (P08581 25-307 limits assumed) above
T4 sequence (P08581 308-932): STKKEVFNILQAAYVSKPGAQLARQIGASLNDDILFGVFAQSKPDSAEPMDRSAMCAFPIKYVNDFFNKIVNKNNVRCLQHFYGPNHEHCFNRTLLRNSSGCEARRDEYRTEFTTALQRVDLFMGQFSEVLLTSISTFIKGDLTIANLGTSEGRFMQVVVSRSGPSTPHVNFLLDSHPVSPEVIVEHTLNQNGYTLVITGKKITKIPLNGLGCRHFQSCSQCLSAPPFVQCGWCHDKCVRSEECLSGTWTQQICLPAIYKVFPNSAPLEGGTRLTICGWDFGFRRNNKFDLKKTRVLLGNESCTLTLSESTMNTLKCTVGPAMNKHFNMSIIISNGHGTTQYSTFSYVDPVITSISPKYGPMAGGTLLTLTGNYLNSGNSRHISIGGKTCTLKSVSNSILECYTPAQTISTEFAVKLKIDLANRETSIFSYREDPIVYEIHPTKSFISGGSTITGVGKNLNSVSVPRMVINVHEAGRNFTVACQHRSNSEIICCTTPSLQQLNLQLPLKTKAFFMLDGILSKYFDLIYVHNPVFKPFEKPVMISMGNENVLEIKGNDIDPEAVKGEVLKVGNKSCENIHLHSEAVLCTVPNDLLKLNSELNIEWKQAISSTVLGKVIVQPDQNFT
Nature of the assay: Binding kinetics of anti-c-Met scFv by SPR (BIAcore). The procedure:
The affinity and kinetics of anti-c-Met scFv were measured by SRP in BIAcore X (GE healthcare). In BIAcore flowcell, 30 μg/ml of c-MetF932-Fc protein was coupled to EDC- and NHS-activated CM5 sensor chip followed by blocking with ethanolamine according to manufacturer's directions. Associated and dissociated phases were monitored for 3 and 5 min, respectively, under continuous flow of 30 μl/min using scFv concentrations ranging 5 to 200 nM. Regeneration was performed by injection of regenerate buffer (0.2 M NaCl, 10 mM glycine, pH 2.7). To determine binding constants, the sensorgrams were fit globally to a sample 1:1 interaction model using BIAevaluation software (GE healthcare).
Binding kinetic constants (Kon and Koff) and affinity of each soluble scFv for c-Met932-Fc protein were measured by Surface Plasmon Resonance (SPR).
Kon and Koff were measured by SRP in a BIAcore using purified scFvs, and the Kd was calculated by BIAevaluation software.
In general terms: Surface plasmon resonance follows binding to a sensor surface in real time, without labels.

Another assay addresses T5, c-MetF932-Fc protein (Homo sapiens, UniProt P08581).
T5 construct: DNA fragments encoding amino acid residues 1 to 932 and 1 to 567 of c-Met were amplified by PCR; made in house; host or cells: 293T cells, transient transfection, protein G purification from supernatant
Put plainly: Competitive ELISA: soluble scFv inhibit HGF binding to immobilized c-Met protein. Conditions: different concentrations of soluble scFv. The procedure:
To monitor inhibition effect of scFv, we coated the c-MetF932-Fc protein on a 96-well plate and blocked nonspecific binder with 3% BSA in PBS. 1 nM human HGF (R&D) plus varying concentrations of anti-c-Met scFv or normal mouse IgG were applied to the wells. The amount of HGF bound to c-Met was determined using goat anti-human HGF (R&D), following incubation of HRP-labeled mouse anti-goat IgG (Jackson ImmunoResearch) and OPD substrate (Sigma) plus H2O2. The absorbance was measured with 490 nm using a microplate reader. Inhibition percentage was calculated by the following equation: [(the absorbance of HGF bound without competitor)−(the absorbance of HGF bound with competitor)]/(the absorbance of HGF bound without competitor)×100%.
as §1

The target in another assay is T6, c-Met567-Fc protein (Homo sapiens, UniProt P08581).
T6 construct: DNA fragments encoding amino acid residues 1 to 932 and 1 to 567 of c-Met were amplified by PCR; made in house; host or cells: 293T cells, transient transfection, protein G purification from supernatant
T6 sequence (P08581 25-567): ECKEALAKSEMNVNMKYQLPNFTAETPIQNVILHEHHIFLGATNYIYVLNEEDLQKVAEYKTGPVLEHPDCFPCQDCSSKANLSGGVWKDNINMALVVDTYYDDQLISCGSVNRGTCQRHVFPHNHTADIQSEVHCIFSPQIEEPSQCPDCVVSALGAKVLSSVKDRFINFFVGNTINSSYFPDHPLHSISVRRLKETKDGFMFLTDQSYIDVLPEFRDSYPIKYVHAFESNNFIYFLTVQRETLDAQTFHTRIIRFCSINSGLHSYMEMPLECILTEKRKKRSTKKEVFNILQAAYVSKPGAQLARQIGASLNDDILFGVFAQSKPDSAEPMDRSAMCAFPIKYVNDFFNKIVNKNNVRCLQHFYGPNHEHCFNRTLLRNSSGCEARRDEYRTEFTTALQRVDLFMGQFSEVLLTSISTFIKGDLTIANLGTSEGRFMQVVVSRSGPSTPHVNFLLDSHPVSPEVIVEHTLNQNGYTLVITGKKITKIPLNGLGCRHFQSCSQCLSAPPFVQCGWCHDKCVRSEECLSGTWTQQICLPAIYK
Put plainly: Epitope ELISA on c-Met932-Fc and c-Met567-Fc. It counts as binding. Conditions: immobilized recombinant proteins. The procedure:
Therefore, binding epitopes of anti-c-Met scFvs localized within HGF binding domain of c-Met were investigated. The binding ability of anti-c-Met scFvs was examined for c-Met932-Fc protein including whole extracellular domain of c-Met, and c-Met567-Fc protein containing Sema and PSI domain, both of which have been defined as HGF binding regions (FIG. 2, panel C). The c-Met recombinant proteins were immobilized on titer wells, and incubated with anti-c-Met scFvs. Anti-c-Met polyclonal antibody and anti-E tag antibody was used as a positive and negative control, respectively. […] The binding intensity of S1 for c-Met932-Fc was similar to that for c-Met567-Fc.

[3] abbreviates: purified scFv, c-MetF932-Fc on CM5 chip.

One may read the Kd as the free concentration of one partner at which half of the binding sites on the other are occupied at equilibrium, for simple one-to-one binding.

T1 sequence (P08581 25-1390): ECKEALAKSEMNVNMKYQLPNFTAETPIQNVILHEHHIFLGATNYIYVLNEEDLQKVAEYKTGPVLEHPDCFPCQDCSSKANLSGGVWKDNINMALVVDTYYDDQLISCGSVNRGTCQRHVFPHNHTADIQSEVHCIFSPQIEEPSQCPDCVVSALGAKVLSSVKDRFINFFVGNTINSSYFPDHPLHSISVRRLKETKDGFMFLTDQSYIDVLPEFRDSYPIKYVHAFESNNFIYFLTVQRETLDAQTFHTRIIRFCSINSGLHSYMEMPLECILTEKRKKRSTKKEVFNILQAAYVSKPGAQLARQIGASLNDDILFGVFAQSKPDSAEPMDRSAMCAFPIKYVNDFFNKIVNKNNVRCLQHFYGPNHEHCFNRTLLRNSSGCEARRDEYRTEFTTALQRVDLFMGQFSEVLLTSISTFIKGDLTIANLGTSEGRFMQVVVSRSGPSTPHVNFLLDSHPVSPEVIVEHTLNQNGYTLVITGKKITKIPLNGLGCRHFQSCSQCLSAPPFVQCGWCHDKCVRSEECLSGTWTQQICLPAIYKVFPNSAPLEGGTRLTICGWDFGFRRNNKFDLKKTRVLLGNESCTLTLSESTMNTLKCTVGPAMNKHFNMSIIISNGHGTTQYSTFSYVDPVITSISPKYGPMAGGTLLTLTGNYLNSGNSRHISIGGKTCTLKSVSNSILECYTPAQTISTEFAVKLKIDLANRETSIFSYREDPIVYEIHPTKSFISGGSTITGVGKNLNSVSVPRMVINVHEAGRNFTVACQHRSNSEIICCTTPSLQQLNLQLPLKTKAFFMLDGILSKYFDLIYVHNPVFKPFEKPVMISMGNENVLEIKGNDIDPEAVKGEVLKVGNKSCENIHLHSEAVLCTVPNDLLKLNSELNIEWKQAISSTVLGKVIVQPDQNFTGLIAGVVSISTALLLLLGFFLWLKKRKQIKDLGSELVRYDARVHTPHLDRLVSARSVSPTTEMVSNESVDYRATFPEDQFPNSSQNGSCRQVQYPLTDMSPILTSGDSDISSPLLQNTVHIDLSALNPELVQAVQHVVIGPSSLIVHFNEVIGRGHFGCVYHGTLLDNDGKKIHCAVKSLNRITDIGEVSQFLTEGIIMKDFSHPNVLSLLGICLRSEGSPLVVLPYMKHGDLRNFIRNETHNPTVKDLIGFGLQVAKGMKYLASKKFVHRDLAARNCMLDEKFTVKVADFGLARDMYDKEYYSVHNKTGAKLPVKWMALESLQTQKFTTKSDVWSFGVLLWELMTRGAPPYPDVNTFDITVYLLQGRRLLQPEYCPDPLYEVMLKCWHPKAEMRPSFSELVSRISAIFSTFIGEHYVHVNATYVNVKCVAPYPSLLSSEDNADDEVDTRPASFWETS
T5 sequence (P08581 25-307 limits assumed): as the sequence (P08581 25-307 limits assumed) above
T5 sequence (P08581 308-932 limits assumed): as the sequence (P08581 308-932) above

B1: PC1: phage-displayed anti-c-Met scFv, phage clone 1 (protein)
scFv: MAQVQLQQSGPGLVKPSQTLSLTCDISGDSVSSNSAAWNWIRQSPSRGLEWLGRTYYRSRWYNEYAVSVRGRISINAETSKNQFSLQLNSVTPEDTAIYYCARAGFCSGGNCYPGSEDAFDLWGQGTMVTVGGGGSGGGGSGGGGSDVVMTQSPPSLSVSVGDRVTITCRASQDITNDLNWYQQKPGKAPQLLIYHASELETGVPSRFSGSGFGTDFTLTISSLQPADIATYYCQQYDDLPLTFGGGTKVEIKR
modifications: left off: large carriers
In the case of B1, the “Inhibition of HGF binding to H1993 cells” value in assay [1] is on record as “more than 90%”. The “c-Met binding affinity in comparative ELISA” value in the assay with c-Met-Fc protein is recorded as “stronger c-Met binding affinity than either PC20 or PC21”. For the same molecule, the “Binding to cellular c-Met on 293T cells” value in assay [2] is “higher than that of PC20 and PC21”.

B2: S21: soluble anti-c-Met scFv corresponding to phage clone PC21; VH/VL sequences in Table 1 (protein)
scFv: MAEVQLVESGPGLVKPSGTLSLKCDASAISMDSNYWWSWLRQPPGKGLEWIGEISHSGSTDYNPSLKSRATISIDKSKKQFFLRLKSVTAADTAVYYCAGLLSPLDAFDEWGQGTMVTVGGGGSGGGGSGGGGSDIQMTQSPSSLSASVGDRVTITCRASQRVATYLNWYQQKPGKAPNLLIYEASSLQSGVPSRFSGRRSGTDFTLTISSLQPEDFATYYCQQSYNTPYTFGQGTRLEIKR
modifications: left off: small tags and cut ends
Turning to B2, the Kd with c-Met932-Fc protein (purified scFv 5 to 200 nM, c-MetF932-Fc coupled to CM5 chip, Kd calculated by BIAevaluation software) is 14.9 nM. Also, in the assay with c-Met932-Fc protein (setting [3]), the Koff stood at 0.00389 s⁻¹ and the Kon was 261000 M⁻¹ s⁻¹. Besides, in the assay with c-MetF932-Fc protein, the “Inhibition of binding activity of HGF to c-Met” value is on record as “only slightly inhibited”. The “Binding to c-Met567-Fc compared to c-Met932-Fc” value with c-Met567-Fc protein is “dramatically decreased”.

Values taken from patent US9150655B2, “Anti-C-met antibody and methods of use thereof” (ACADEMIA SINICA, priority 2010, dated 2015).
